This note sets out measurements from publication PMC10132805.

Test [1] has as its target N-terminal domain of clathrin (CLTC NTD) (human) (UniProt Q00610).
In test [2] the target is FITC - gag 493-502 (HIV1) (Human immunodeficiency virus type 1 group N (isolate YBF30) (HIV-1)).
The target in test [3] is FITC - ARRB2 370-379 (Human) (Homo Sapiens).
Test [4] has as its target FITC - PDCD6IP 797-809 (Human) (Homo Sapiens).
For test [5], the target named is centrosomal protein of 55 kDa EABR domain (CEP55 EABR) (human) (UniProt Q53EZ4).
The target of test [6] is FITC - UL56 46-55 (HHV2) (Human herpesvirus 2 (strain HG52) (HHV-2)).
The target in test [7] is C terminal domain of polyadenylate-binding protein 1 (human) (UniProt P11940).
The target of test [8] is programmed cell death 6-interacting protein (ALIX) V domain (human).
The target of test [9] is E3 ubiquitin-protein ligase NEDD4 WW2 domain (human).
The target of test [10] is E3 ubiquitin-protein ligase NEDD4 WW4 domain (human).
In test [11] the target is V domain of programmed cell death 6-interacting protein (ALIX V) (human) (UniProt Q8WUM4).
V domain of programmed cell death 6-interacting protein (ALIX V) (human), sequence (Q8WUM4 whole entry): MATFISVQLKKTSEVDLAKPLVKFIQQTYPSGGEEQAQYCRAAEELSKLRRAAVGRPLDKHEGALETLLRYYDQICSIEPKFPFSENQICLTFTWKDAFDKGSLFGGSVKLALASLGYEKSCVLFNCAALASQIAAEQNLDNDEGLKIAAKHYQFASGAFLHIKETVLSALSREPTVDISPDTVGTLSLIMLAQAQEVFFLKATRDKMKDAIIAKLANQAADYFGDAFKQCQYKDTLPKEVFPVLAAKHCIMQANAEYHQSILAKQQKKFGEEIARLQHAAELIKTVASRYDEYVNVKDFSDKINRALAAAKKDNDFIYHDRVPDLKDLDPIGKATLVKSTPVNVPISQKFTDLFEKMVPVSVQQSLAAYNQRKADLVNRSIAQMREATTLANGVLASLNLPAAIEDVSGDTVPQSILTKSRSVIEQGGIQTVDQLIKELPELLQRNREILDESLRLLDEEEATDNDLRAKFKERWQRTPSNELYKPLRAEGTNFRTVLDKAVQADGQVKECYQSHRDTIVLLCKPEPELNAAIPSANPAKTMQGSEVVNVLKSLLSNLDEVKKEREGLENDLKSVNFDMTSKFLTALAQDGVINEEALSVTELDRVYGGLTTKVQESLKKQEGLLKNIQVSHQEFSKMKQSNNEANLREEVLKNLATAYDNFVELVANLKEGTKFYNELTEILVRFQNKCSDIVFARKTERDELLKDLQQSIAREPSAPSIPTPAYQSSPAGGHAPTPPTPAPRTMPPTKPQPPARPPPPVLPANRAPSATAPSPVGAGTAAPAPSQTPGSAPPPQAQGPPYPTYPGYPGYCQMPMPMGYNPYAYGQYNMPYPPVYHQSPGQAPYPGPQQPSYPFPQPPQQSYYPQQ

N-terminal domain of clathrin (CLTC NTD) (human), sequence (Q00610 whole entry, the tested form may be a part): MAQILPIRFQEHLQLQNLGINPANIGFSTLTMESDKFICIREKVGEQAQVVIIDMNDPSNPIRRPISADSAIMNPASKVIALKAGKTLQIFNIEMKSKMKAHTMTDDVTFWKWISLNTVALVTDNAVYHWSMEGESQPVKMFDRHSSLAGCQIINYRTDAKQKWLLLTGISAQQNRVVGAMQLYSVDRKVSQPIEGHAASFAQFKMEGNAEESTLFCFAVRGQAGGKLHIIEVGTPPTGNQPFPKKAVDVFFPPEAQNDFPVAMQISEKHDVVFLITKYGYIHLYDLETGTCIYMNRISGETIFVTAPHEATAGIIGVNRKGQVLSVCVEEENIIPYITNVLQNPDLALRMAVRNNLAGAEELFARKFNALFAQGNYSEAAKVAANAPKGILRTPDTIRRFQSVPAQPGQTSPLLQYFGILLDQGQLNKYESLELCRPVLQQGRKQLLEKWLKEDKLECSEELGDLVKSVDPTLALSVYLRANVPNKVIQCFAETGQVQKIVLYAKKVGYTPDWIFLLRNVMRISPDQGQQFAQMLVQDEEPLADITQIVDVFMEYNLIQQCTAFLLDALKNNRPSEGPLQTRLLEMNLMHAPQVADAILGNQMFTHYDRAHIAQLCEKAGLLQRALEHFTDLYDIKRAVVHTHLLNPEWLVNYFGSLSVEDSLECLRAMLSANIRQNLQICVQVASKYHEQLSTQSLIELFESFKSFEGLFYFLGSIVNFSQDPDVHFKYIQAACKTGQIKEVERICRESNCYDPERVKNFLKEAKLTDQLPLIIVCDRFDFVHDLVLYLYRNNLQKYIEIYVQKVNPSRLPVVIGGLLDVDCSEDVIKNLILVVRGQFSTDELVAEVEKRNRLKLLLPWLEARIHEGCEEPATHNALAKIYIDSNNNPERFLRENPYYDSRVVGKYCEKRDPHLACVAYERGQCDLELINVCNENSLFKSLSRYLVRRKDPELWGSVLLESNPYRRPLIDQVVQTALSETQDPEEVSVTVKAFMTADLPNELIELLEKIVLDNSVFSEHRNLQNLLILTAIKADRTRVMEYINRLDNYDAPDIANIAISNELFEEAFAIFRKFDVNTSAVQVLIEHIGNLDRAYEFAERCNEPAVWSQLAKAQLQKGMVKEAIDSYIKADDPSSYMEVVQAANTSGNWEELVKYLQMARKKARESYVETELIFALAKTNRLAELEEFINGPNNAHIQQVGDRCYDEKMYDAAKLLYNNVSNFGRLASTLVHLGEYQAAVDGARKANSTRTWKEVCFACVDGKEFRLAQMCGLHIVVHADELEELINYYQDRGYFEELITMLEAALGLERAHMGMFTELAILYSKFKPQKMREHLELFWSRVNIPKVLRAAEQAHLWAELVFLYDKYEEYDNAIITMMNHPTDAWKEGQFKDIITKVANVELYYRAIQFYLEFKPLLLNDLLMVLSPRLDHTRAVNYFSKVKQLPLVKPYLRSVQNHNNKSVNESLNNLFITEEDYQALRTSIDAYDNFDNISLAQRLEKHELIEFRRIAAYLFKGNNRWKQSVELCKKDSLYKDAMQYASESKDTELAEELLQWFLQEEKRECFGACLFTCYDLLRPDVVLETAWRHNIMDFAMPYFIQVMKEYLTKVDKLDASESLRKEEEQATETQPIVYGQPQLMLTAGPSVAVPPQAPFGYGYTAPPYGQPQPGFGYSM
centrosomal protein of 55 kDa EABR domain (CEP55 EABR) (human), sequence (Q53EZ4 whole entry, the tested form may be a part): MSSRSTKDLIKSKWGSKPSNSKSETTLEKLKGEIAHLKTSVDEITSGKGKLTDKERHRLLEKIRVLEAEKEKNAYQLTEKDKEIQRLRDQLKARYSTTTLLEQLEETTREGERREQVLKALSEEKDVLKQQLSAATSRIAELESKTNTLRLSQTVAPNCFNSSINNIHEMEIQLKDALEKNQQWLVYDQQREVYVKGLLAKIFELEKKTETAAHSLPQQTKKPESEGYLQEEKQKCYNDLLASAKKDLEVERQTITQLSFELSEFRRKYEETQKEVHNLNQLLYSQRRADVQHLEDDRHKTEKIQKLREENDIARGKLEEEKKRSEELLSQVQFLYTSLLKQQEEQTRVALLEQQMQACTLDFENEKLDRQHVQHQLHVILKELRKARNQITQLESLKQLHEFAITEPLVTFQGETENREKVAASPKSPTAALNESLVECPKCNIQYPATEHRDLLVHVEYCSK
E3 ubiquitin-protein ligase NEDD4 WW4 domain (human), sequence (P46934 whole entry, the tested form may be a part): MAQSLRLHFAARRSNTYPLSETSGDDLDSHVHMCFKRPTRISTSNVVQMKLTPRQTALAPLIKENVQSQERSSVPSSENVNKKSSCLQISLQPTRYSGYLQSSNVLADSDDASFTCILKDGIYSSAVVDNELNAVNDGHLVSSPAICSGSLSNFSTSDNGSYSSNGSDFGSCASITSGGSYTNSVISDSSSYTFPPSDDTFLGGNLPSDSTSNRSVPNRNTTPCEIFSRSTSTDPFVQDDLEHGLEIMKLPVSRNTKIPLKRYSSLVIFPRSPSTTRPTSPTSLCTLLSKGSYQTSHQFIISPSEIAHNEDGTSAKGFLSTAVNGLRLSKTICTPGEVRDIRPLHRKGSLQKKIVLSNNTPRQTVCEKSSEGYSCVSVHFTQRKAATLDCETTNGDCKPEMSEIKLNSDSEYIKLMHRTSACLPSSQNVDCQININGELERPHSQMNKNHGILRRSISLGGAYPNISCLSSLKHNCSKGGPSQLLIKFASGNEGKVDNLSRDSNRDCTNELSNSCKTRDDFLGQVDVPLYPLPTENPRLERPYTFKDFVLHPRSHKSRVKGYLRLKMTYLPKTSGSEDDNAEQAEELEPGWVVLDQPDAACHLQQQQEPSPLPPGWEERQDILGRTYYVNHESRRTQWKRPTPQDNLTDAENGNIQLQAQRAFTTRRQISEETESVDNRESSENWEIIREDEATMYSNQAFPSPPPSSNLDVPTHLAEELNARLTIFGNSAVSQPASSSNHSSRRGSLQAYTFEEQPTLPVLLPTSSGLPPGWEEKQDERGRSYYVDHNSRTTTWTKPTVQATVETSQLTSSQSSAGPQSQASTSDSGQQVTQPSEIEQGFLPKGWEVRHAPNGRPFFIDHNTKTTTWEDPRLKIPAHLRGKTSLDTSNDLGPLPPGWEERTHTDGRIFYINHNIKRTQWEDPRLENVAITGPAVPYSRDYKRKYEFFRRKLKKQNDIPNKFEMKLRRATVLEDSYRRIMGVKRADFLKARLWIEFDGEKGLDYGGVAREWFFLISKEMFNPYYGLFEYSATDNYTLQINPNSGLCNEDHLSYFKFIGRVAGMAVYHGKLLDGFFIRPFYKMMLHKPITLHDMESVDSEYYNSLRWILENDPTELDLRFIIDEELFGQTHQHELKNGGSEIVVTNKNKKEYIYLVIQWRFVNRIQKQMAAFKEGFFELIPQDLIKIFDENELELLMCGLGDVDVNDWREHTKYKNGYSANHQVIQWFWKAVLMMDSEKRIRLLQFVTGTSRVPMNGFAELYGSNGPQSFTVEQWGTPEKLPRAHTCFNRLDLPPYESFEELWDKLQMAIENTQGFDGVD
E3 ubiquitin-protein ligase NEDD4 WW2 domain (human), sequence (P46934 whole entry, the tested form may be a part): as above
C terminal domain of polyadenylate-binding protein 1 (human), sequence (P11940 544-623): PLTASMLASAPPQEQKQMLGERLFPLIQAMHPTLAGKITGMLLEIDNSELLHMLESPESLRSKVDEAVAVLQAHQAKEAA

For orientation: Kd means the concentration at which binding is half-saturated. A high value points to weaker binding. For RdRp 1840-1855 (SVV) (peptide), the Kd in test [1] is 800 µM.
For the substance mu-NS 705-720 (MRV1) (peptide), the dissociation constant Kd in [1] is 34 µM. Against the preceding substance, the Kd is about 24-fold lower.
“V domain of programmed cell death 6-interacting protein (ALIX V) (from UniProt Q8WUM4 1-868) (domain or fragment)” came in with a Kd in test [2] of 2.6 µM.
In [3], “N-terminal domain of clathrin (CLTC NTD) (from UniProt Q00610 1-1675) (domain or fragment)” gave a Kd of 26 µM.
For the substance “centrosomal protein of 55 kDa EABR domain (CEP55 EABR) (from UniProt Q53EZ4 1-464) (domain or fragment)”, the dissociation constant Kd in test [4] worked out at 0.31 µM.
In the case of NP 602-617 (REBOV) (peptide), in [5], the dissociation constant (Kd) worked out at 2.18 µM.
Take “E3 ubiquitin-protein ligase NEDD4 WW2 domain (domain or fragment)”: the Kd in [6] was 16 µM.
For N_(2-17) (BeV) peptide, the fold weaker affinity than PAIP2(108-123) in test [7] amounted to 10 fold.
As for “E3 ubiquitin-protein ligase NEDD4 WW4 domain (domain or fragment)”, in test [6], the Kd amounted to 82 µM. This counts as double-digit micromolar.
In test [8], Nsp4_(118-142) (BAV) peptide returned a fold weaker affinity than the syntenin-2 peptide of over 300 fold.
Nsp3 1765-1780 (EEEV) (peptide) showed a dissociation constant Kd in test [1] of 28 µM.
In turn, P 177-192 (RABV) (peptide) came in with a dissociation constant Kd in [5] of 22.3 µM.
For the substance VP40 1-20 (SEBOV) (peptide), the results for the equilibrium dissociation constant (Kd) in test [9] and in test [10] were 22 µM and 68 µM, respectively.
On to Nsp4 118-142 (BAV) (peptide), for which, in [11], the Kd was 160 µM.
Still for that read-out and setting: with Nsp4 119-134 (BAV) (peptide) the figure was 101 µM.
